First the molecules themselves.
B1: ATG18 (natural protein, S. cerevisiae, UniProt P43601 1-500, looked up)
chain: MSDSSPTINFINFNQTGTCISLGTSKGFKIFNCEPFGKFYSEDSGGYAIVEMLFSTSLLALVGIGDQPALSPRRLRIINTKKHSIICEVTFPTSILSVKMNKSRLVVLLQEQIYIYDINTMRLLHTIETNPNPRGLMAMSPSVANSYLVYPSPPKVINSEIKAHATTNNITLSVGGNTETSFKRDQQDAGHSDISDLDQYSSFTKRDDADPTSSNGGNSSIIKNGDVIVFNLETLQPTMVIEAHKGEIAAMAISFDGTLMATASDKGTIIRVFDIETGDKIYQFRRGTYATRIYSISFSEDSQYLAVTGSSKTVHIFKLGHSMSNNKLDSDDSNMEEAAADDSSLDTTSIDALSDEENPTRLAREPYVDASRKTMGRMIRYSSQKLSRRAARTLGQIFPIKVTSLLESSRHFASLKLPVETNSHVMTISSIGSPIDIDTSEYPELFETGNSASTESYHEPVMKMVPIRVVSSDGYLYNFVMDPERGGDCLILSQYSILMD
B2: human WIPI4 (natural protein, UniProt Q9Y484 1-360, looked up)
chain: MTQQPLRGVTSLRFNQDQSCFCCAMETGVRIYNVEPLMEKGHLDHEQVGSMGLVEMLHRSNLLALVGGGSSPKFSEISVLIWDDAREGKDSKEKLVLEFTFTKPVLSVRMRHDKIVIVLKNRIYVYSFPDNPRKLFEFDTRDNPKGLCDLCPSLEKQLLVFPGHKCGSLQLVDLASTKPGTSSAPFTINAHQSDIACVSLNQPGTVVASASQKGTLIRLFDTQSKEKLVELRRGTDPATLYCINFSHDSSFLCASSDKGTVHIFALKDTRLNRRSALARVGKVGPMIGQYVDSQWSLASFTVPAESACICAFGRNTSKNVNSVIAICVDGTFHKYVFTPDGNCNREAFDVYLDICDDDDF

One assay concerns the target S. cerevisiae ATG2 (S. cerevisiae, UniProt P53855 1-1592). The assay is described as follows: negative-stain EM.
The assay “human WIPI4” addresses B2. In words: SEC. Background: SEC sorts molecules by how far they enter the pores of the column.
A further assay addresses human ATG2A (human, UniProt Q2TAZ0 1-1938). In words: negative-stain EM.

Chain of human ATG2A (Q2TAZ0 whole entry): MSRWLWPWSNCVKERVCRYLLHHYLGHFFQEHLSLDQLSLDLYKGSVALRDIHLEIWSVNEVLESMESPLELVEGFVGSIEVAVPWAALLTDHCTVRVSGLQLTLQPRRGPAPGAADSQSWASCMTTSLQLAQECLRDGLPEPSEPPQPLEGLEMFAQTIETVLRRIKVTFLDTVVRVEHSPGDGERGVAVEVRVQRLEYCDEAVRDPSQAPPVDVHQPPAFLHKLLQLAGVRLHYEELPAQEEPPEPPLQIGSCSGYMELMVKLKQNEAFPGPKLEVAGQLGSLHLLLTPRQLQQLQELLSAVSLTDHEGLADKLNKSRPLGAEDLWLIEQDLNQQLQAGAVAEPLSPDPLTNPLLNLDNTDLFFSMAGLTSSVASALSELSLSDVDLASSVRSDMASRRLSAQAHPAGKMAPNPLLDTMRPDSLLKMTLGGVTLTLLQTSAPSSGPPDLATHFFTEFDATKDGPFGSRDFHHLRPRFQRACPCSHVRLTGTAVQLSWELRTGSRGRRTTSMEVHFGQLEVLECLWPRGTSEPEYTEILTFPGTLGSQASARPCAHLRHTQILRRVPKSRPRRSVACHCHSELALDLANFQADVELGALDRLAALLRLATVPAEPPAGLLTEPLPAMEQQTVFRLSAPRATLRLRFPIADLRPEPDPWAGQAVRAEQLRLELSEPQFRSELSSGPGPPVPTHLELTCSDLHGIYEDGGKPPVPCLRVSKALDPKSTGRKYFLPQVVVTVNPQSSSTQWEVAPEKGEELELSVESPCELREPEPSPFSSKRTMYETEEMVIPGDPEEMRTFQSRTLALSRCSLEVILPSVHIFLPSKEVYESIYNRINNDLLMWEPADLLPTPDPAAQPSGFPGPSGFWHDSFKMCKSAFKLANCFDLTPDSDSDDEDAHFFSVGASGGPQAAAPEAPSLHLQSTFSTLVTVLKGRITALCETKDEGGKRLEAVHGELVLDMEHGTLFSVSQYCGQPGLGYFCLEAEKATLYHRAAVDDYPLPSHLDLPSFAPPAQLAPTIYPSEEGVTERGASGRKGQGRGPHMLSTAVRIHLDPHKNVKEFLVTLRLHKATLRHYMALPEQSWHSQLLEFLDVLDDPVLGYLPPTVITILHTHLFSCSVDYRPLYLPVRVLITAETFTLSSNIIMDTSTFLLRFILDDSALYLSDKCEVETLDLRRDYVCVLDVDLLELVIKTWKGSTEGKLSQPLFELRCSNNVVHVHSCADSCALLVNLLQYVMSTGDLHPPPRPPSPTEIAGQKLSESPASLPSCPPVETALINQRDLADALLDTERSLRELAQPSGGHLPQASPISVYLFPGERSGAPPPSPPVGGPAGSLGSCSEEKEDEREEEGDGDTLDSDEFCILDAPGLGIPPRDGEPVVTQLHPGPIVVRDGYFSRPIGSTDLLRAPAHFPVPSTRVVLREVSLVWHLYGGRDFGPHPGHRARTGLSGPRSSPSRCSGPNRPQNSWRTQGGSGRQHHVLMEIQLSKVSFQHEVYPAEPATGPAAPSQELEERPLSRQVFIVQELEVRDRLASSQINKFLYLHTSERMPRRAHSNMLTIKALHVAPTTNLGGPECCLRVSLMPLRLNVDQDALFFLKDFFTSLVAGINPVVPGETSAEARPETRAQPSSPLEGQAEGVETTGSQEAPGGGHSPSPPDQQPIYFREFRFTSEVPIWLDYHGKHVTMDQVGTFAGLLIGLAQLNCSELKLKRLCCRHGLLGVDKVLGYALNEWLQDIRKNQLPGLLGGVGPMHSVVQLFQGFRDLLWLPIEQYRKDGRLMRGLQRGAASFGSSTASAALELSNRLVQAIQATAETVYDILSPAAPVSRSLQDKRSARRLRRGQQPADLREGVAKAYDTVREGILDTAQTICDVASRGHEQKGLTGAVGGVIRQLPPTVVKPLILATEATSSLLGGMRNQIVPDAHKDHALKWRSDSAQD
Chain of S. cerevisiae ATG2 (P53855 whole entry): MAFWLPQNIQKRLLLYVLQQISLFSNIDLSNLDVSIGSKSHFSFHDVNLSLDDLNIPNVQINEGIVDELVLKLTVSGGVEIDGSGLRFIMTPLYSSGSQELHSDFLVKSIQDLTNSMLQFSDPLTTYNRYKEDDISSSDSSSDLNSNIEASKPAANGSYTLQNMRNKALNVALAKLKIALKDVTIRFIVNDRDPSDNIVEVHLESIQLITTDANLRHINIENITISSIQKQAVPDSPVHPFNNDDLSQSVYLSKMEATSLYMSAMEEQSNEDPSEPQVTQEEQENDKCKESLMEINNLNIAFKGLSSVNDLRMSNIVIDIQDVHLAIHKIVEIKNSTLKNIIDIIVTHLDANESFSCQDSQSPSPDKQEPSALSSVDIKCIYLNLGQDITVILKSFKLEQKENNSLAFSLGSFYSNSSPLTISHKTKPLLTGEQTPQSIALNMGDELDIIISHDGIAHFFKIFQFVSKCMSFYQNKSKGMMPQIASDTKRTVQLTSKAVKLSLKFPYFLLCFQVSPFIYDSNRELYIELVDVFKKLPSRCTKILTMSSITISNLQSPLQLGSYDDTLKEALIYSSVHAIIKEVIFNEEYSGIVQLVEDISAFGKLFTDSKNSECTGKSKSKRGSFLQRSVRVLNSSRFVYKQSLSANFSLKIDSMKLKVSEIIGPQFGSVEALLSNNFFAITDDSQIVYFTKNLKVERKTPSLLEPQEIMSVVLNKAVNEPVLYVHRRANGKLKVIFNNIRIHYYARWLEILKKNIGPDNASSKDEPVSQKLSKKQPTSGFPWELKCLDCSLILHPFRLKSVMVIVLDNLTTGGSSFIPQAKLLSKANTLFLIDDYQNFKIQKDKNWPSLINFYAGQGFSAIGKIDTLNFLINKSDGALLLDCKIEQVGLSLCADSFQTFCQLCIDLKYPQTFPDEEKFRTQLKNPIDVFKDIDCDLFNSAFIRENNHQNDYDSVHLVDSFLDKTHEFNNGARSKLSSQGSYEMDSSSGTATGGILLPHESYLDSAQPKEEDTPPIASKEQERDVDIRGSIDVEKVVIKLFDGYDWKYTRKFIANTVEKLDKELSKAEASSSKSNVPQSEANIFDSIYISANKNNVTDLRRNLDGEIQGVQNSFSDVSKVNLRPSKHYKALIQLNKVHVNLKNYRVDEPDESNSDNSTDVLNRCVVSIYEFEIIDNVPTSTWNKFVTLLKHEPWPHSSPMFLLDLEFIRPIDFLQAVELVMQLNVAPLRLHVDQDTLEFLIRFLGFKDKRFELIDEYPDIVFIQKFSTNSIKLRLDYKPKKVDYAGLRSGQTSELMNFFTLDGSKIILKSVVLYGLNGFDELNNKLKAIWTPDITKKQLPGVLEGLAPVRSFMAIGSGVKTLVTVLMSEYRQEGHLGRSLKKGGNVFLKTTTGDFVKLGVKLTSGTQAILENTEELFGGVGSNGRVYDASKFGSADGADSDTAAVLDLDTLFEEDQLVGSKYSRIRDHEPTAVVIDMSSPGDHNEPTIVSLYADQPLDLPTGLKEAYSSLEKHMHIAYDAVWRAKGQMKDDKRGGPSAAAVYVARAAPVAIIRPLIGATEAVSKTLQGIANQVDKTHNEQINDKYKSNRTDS

As for B1, the binding result with S. cerevisiae ATG2 was “binds”.

As for DSDEFCILDAPGLGIPPRDGEPVVTQLHPGPIVVRDGYFSRPIGSTD (domain or fragment, human, UniProt Q2TAZ0 1358-1404, looked up) [6xHis-GB1-ATG2A (1358-1404)], the binding result in the assay with human WIPI4 is “binds”.

Take B2: the stoichiometry N (in general, a count of units in the complex or per binding partner) with human ATG2A came to 1.
